Data from paper PMC11267573, “A Robust α-L-Fucosidase from Prevotella nigrescens for Glycoengineering Therapeutic Antibodies” (ACS Chemical Biology, 2024).

T1: MBP-AlfC (Lacticaseibacillus paracasei, UniProt A0A422MHI3)
T1 construct: gene BN194_28780; pMAL-c4X, E. coli; codon-optimized synthetic gene
T1 sequence (A0A422MHI3 1-344): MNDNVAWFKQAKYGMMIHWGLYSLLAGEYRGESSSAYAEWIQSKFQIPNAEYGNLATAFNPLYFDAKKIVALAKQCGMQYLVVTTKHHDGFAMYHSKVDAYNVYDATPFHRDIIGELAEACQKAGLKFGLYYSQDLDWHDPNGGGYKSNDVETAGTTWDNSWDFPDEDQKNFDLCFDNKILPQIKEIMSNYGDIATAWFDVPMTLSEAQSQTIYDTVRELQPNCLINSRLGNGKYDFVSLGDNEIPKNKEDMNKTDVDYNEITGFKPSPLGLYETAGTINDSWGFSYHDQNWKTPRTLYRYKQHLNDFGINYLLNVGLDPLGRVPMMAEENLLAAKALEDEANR

B1: Δ20PnfucA (Prevotella nigrescens CC14M) (protein)
chain: QTNSQQQESNNRATTTESVPQKYIPTAENLAARKRFEGFRFGIFLHWGIYSTFAQGEWYLNNKINKDEYAKAASAFYPSYFDADAWISAIKASGAKYITFTSRHHDSFSMFKTKESNYNIVDATPFKRDVLKELANACHKQNIDLHIYYSILDWIREDYPIGRTGLYTGRKLKPNYGTYFNFMKGQVSELLHNYGKVGAIWLDGYWDHDSDSIPFDWRMEEFYRYIHSIQPACLIGNNHHIAPIDGEDFQMFERDLPGENKAGLSGQAISRLPLEACQTMNGMWGYKVSDINYKSTSQLIELLVRSAAKGSNLLLNIGPQPNGELPALALDRLQGIGKWMQQYGETIYETMAGDVAEADWGVSTSKGKKTYLHVLEQDAKTISCALSVKPKRVIDFASRQPLSFHYDKKTKTLTTHIGSHRNVVDYIIEIEK
notes: 20 N-terminal residues (signal peptide) removed; apparent mass ~52 kDa; codon-optimized synthetic gene

Tests used:
Assay in all cases: p-nitrophenol release, initial-rate kinetics
MBP-PnfucA = molecular target: T2, MBP-PnfucA (Prevotella nigrescens, UniProt V8CPU0); type: biochemical; settings: assay details in supplement; MBP fusion
T2 construct: gene HMPREF1173_00896; pMAL-c4X, E. coli; poor purity
From the text: p-nitrophenol release, initial-rate kinetics on MBP-PnfucA

MBP-AlfC = molecular target: T1, MBP-AlfC; type: biochemical; settings: assay details in supplement; MBP fusion
From the text: p-nitrophenol release, initial-rate kinetics on MBP-AlfC

[1] = substrate: C[C@@H]1O[C@@H](Oc2ccc([N+](=O)[O-])cc2)[C@@H](O)[C@H](O)[C@@H]1O; type: biochemical, Prevotella nigrescens; settings: assay details in supplement
From the text: p-nitrophenol release, initial-rate kinetics on Δ20PnfucA

Molecule	Km (MBP-PnfucA) [µM]	Km (MBP-AlfC) [µM]	Km [1] [µM]	kcat [1] [s⁻¹]	kcat/Km [1] [M⁻¹ s⁻¹]
C[C@@H]1O[C@@H](Oc2ccc([N+](=O)[O-])cc2)[C@@H](O)[C@H](O)[C@@H]1O [pNP-Fuc]	250 ± 20	620 ± 60			
B1			560 ± 50	66.5 ± 2	119000
